# Measured values reported in publication PMC7272049.
# Assays:
# [1] = molecular target: B7-1 (Homo sapiens) (UniProt P33681); details: cited from earlier work
# [2] = molecular target: B7-1 (Mus musculus) (UniProt Q00609); details: cited from earlier work
# [3] = molecular target: mB7-1 mIgG2a (UniProt Q00609); assay: FACS titration; details: cells expressing PD-L1 titrated with recombinant B7-1 Fc-fusion; anti-mouse Alexa 488 secondary; single-site binding model
# [4] = molecular target: mPD-1 mIgG2a (UniProt Q02242); assay: FACS titration; details: cells expressing PD-L1 titrated with recombinant PD-1 Fc-fusion; anti-mouse Alexa 488 secondary; single-site binding model
# Chain of B7-1 (P33681 35-242): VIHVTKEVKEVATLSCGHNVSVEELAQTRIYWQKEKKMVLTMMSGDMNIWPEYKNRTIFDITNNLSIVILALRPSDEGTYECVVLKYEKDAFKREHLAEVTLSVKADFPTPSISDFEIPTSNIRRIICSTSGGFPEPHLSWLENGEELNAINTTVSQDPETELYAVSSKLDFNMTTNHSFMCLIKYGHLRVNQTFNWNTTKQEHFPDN
# Chain of PD-L1 (Q9EP73 19-239): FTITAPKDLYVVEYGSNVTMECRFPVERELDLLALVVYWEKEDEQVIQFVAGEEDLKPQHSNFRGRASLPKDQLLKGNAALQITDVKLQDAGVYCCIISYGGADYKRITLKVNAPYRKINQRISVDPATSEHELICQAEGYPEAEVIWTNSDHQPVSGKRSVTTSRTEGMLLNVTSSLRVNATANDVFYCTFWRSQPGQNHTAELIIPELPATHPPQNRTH
substance,measurement,setting,value
B7-1 (from UniProt P33681),Kd,[1],35 µM
PD-L1 (from UniProt Q9EP73),Kd,[2],1.6 µM
WT mPD-L1 mCherry (from UniProt Q9EP73) D28R,other: Bmax,[3],73.1
same,other: Bmax,[4],93.4
